Laboratory results taken from US20240360194A1, “New Peptides as Potent and Selective GIP Receptor Agonists” (Sanofi, priority 2021, published 2024).
Numbered stars: 1 amine (or outer) side, 2 acyl side, 3 side chain; on linkers, the order of the positions; unused ones are H or OH. Square brackets hold non-standard residues; d marks the D form. Side chains are listed from the residue outwards. Ends that are not written are not given here. * marks the point of attachment. C18 diacid = O=C(O)CCCCCCCCCCCCCCCCC(=O)*; γGlu = O=C(O)[C@H](CCC(=O)[*:2])N[*:1]; AEEA = NCCOCCOCC(=O)O; Aib = CC(C)(N)C(=O)O

T1: human GIP receptor (human, UniProt P48546 22-466)
T1 sequence (looked up): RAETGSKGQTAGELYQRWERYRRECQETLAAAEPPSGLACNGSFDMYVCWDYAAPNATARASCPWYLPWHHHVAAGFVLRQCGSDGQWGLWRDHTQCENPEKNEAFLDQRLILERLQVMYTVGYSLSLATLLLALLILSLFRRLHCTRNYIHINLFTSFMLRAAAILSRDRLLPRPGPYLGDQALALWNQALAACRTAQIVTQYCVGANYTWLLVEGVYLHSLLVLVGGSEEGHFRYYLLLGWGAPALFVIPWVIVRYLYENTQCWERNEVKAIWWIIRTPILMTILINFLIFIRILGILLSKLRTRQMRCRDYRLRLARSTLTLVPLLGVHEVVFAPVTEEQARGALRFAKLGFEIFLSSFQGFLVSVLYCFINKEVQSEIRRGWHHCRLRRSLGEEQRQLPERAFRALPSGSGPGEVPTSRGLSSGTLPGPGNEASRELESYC


Assays:
human GLP-1 receptor [1] = target: T2, human GLP-1 receptor (human, UniProt P43220 24-463); assay: displacement of [125I]GLP-1 from HEK-293 membranes expressing hGLP-1R (SPA beads)
T2 construct: whole, on cells; also called hGLP-1R; hGLP-1 R

human GIP receptor [2] = target: T1, human GIP receptor; assay: cell-based or functional assay
human GLP-1 receptor [3] = target: T2, human GLP-1 receptor; assay: cell-based or functional assay
human GIP receptor [4] = target: T1, human GIP receptor; assay: cell-based or functional assay; remark: listed apart in the source

Binder	IC50 (human GLP-1 receptor [1])	hGIPR EC50 (cAMP, human adipocytes) (human GIP receptor [2])	hGIPR Emax (cAMP, human adipocytes) (human GIP receptor [2])	EC50 hGLP-1R 0.1% BSA (cAMP, HEK-293) (human GLP-1 receptor [3])	EC50 hGIPR 0% HSA (cAMP, HEK-293) (human GIP receptor [4])	EC50 hGIPR 0.1% BSA (cAMP, HEK-293) (human GIP receptor [4])
Y[Aib]EGTFISDLSI[Aib]K([AEEA-AEEA-γGlu-C18 diacid])ERIHQ[Aib]EFIEWLLAQGPSSGAPPPS-NH2 (N-terminus assumed; SMILES CC[C@H](C)[C@H](NC(=O)[C@H](CCCNC(=N)N)NC(=O)[C@H](CCC(=O)O)NC(=O)[C@H](CCCCNC(=O)COCCOCCNC(=O)COCCOCCNC(=O)CC[C@H](NC(=O)CCCCCCCCCCCCCCCCC(=O)O)C(=O)O)NC(=O)C(C)(C)NC(=O)[C@@H](NC(=O)[C@H](CO)NC(=O)[C@H](CC(C)C)NC(=O)[C@H](CC(=O)O)NC(=O)[C@H](CO)NC(=O)[C@@H](NC(=O)[C@H](Cc1ccccc1)NC(=O)[C@@H](NC(=O)CNC(=O)[C@H](CCC(=O)O)NC(=O)C(C)(C)NC(=O)[C@@H](N)Cc1ccc(O)cc1)[C@@H](C)O)[C@@H](C)CC)[C@@H](C)CC)C(=O)N[C@@H](Cc1c[nH]cn1)C(=O)N[C@@H](CCC(N)=O)C(=O)NC(C)(C)C(=O)N[C@@H](CCC(=O)O)C(=O)N[C@@H](Cc1ccccc1)C(=O)N[C@H](C(=O)N[C@@H](CCC(=O)O)C(=O)N[C@@H](Cc1c[nH]c2ccccc12)C(=O)N[C@@H](CC(C)C)C(=O)N[C@@H](CC(C)C)C(=O)N[C@@H](C)C(=O)N[C@@H](CCC(N)=O)C(=O)NCC(=O)N1CCC[C@H]1C(=O)N[C@@H](CO)C(=O)N[C@@H](CO)C(=O)NCC(=O)N[C@@H](C)C(=O)N1CCC[C@H]1C(=O)N1CCC[C@H]1C(=O)N1CCC[C@H]1C(=O)N[C@@H](CO)C(N)=O)[C@@H](C)CC, Synthetic peptide, 39 residues) [SEQ ID NO: 21]	146 nM	2.8 nM	120%	> 10 nM	0.00019 nM	0.00836 nM
Y[Aib]EGTFISDLSI[Aib]K([AEEA-AEEA-γGlu-C18 diacid])DRIHQ[Aib]EFIEWLLAQEPSSGAPPPS-NH2 (N-terminus assumed; SMILES CC[C@H](C)[C@H](NC(=O)[C@H](CCCNC(=N)N)NC(=O)[C@H](CC(=O)O)NC(=O)[C@H](CCCCNC(=O)COCCOCCNC(=O)COCCOCCNC(=O)CC[C@H](NC(=O)CCCCCCCCCCCCCCCCC(=O)O)C(=O)O)NC(=O)C(C)(C)NC(=O)[C@@H](NC(=O)[C@H](CO)NC(=O)[C@H](CC(C)C)NC(=O)[C@H](CC(=O)O)NC(=O)[C@H](CO)NC(=O)[C@@H](NC(=O)[C@H](Cc1ccccc1)NC(=O)[C@@H](NC(=O)CNC(=O)[C@H](CCC(=O)O)NC(=O)C(C)(C)NC(=O)[C@@H](N)Cc1ccc(O)cc1)[C@@H](C)O)[C@@H](C)CC)[C@@H](C)CC)C(=O)N[C@@H](Cc1c[nH]cn1)C(=O)N[C@@H](CCC(N)=O)C(=O)NC(C)(C)C(=O)N[C@@H](CCC(=O)O)C(=O)N[C@@H](Cc1ccccc1)C(=O)N[C@H](C(=O)N[C@@H](CCC(=O)O)C(=O)N[C@@H](Cc1c[nH]c2ccccc12)C(=O)N[C@@H](CC(C)C)C(=O)N[C@@H](CC(C)C)C(=O)N[C@@H](C)C(=O)N[C@@H](CCC(N)=O)C(=O)N[C@@H](CCC(=O)O)C(=O)N1CCC[C@H]1C(=O)N[C@@H](CO)C(=O)N[C@@H](CO)C(=O)NCC(=O)N[C@@H](C)C(=O)N1CCC[C@H]1C(=O)N1CCC[C@H]1C(=O)N1CCC[C@H]1C(=O)N[C@@H](CO)C(N)=O)[C@@H](C)CC, Synthetic peptide, 39 residues (Glu at 30)) [SEQ ID NO: 29]	287 nM	5.3 nM	119%	> 10 nM	0.00015 nM	0.0152 nM
Y[Aib]EGTFISDLSI[Aib]K([AEEA-AEEA-γGlu-C18 diacid])DRIHQ[Aib]EFIEWLLAQRPSSGAPPPS-NH2 (N-terminus assumed; SMILES CC[C@H](C)[C@H](NC(=O)[C@H](CCCNC(=N)N)NC(=O)[C@H](CC(=O)O)NC(=O)[C@H](CCCCNC(=O)COCCOCCNC(=O)COCCOCCNC(=O)CC[C@H](NC(=O)CCCCCCCCCCCCCCCCC(=O)O)C(=O)O)NC(=O)C(C)(C)NC(=O)[C@@H](NC(=O)[C@H](CO)NC(=O)[C@H](CC(C)C)NC(=O)[C@H](CC(=O)O)NC(=O)[C@H](CO)NC(=O)[C@@H](NC(=O)[C@H](Cc1ccccc1)NC(=O)[C@@H](NC(=O)CNC(=O)[C@H](CCC(=O)O)NC(=O)C(C)(C)NC(=O)[C@@H](N)Cc1ccc(O)cc1)[C@@H](C)O)[C@@H](C)CC)[C@@H](C)CC)C(=O)N[C@@H](Cc1c[nH]cn1)C(=O)N[C@@H](CCC(N)=O)C(=O)NC(C)(C)C(=O)N[C@@H](CCC(=O)O)C(=O)N[C@@H](Cc1ccccc1)C(=O)N[C@H](C(=O)N[C@@H](CCC(=O)O)C(=O)N[C@@H](Cc1c[nH]c2ccccc12)C(=O)N[C@@H](CC(C)C)C(=O)N[C@@H](CC(C)C)C(=O)N[C@@H](C)C(=O)N[C@@H](CCC(N)=O)C(=O)N[C@@H](CCCNC(=N)N)C(=O)N1CCC[C@H]1C(=O)N[C@@H](CO)C(=O)N[C@@H](CO)C(=O)NCC(=O)N[C@@H](C)C(=O)N1CCC[C@H]1C(=O)N1CCC[C@H]1C(=O)N1CCC[C@H]1C(=O)N[C@@H](CO)C(N)=O)[C@@H](C)CC, Synthetic peptide, 39 residues (Arg at 30)) [SEQ ID NO: 30]	151 nM	0.5 nM	138%	> 10 nM	0.00048 nM	0.011 nM
Y[Aib]EGTFISDLSI[Aib]LEEQK([AEEA-AEEA-γGlu-C18 diacid])Q[Aib]EFIEWLLAQGPSSGAPPPS-NH2 (N-terminus assumed; SMILES CC[C@H](C)[C@H](NC(=O)[C@H](Cc1ccccc1)NC(=O)[C@H](CCC(=O)O)NC(=O)C(C)(C)NC(=O)[C@H](CCC(N)=O)NC(=O)[C@H](CCCCNC(=O)COCCOCCNC(=O)COCCOCCNC(=O)CC[C@H](NC(=O)CCCCCCCCCCCCCCCCC(=O)O)C(=O)O)NC(=O)[C@H](CCC(N)=O)NC(=O)[C@H](CCC(=O)O)NC(=O)[C@H](CCC(=O)O)NC(=O)[C@H](CC(C)C)NC(=O)C(C)(C)NC(=O)[C@@H](NC(=O)[C@H](CO)NC(=O)[C@H](CC(C)C)NC(=O)[C@H](CC(=O)O)NC(=O)[C@H](CO)NC(=O)[C@@H](NC(=O)[C@H](Cc1ccccc1)NC(=O)[C@@H](NC(=O)CNC(=O)[C@H](CCC(=O)O)NC(=O)C(C)(C)NC(=O)[C@@H](N)Cc1ccc(O)cc1)[C@@H](C)O)[C@@H](C)CC)[C@@H](C)CC)C(=O)N[C@@H](CCC(=O)O)C(=O)N[C@@H](Cc1c[nH]c2ccccc12)C(=O)N[C@@H](CC(C)C)C(=O)N[C@@H](CC(C)C)C(=O)N[C@@H](C)C(=O)N[C@@H](CCC(N)=O)C(=O)NCC(=O)N1CCC[C@H]1C(=O)N[C@@H](CO)C(=O)N[C@@H](CO)C(=O)NCC(=O)N[C@@H](C)C(=O)N1CCC[C@H]1C(=O)N1CCC[C@H]1C(=O)N1CCC[C@H]1C(=O)N[C@@H](CO)C(N)=O, Synthetic peptide, 39 residues) [SEQ ID NO: 36]	115 nM	0.3 nM	104%	> 10 nM	0.00012 nM	0.0288 nM
Y[Aib]EGTFISDLSI[Aib]K([AEEA-AEEA-γGlu-C18 diacid])DRIHQEEFIEWLLAQEPSSGAPPPS-NH2 (N-terminus assumed; SMILES CC[C@H](C)[C@H](NC(=O)[C@H](Cc1ccccc1)NC(=O)[C@H](CCC(=O)O)NC(=O)[C@H](CCC(=O)O)NC(=O)[C@H](CCC(N)=O)NC(=O)[C@H](Cc1c[nH]cn1)NC(=O)[C@@H](NC(=O)[C@H](CCCNC(=N)N)NC(=O)[C@H](CC(=O)O)NC(=O)[C@H](CCCCNC(=O)COCCOCCNC(=O)COCCOCCNC(=O)CC[C@H](NC(=O)CCCCCCCCCCCCCCCCC(=O)O)C(=O)O)NC(=O)C(C)(C)NC(=O)[C@@H](NC(=O)[C@H](CO)NC(=O)[C@H](CC(C)C)NC(=O)[C@H](CC(=O)O)NC(=O)[C@H](CO)NC(=O)[C@@H](NC(=O)[C@H](Cc1ccccc1)NC(=O)[C@@H](NC(=O)CNC(=O)[C@H](CCC(=O)O)NC(=O)C(C)(C)NC(=O)[C@@H](N)Cc1ccc(O)cc1)[C@@H](C)O)[C@@H](C)CC)[C@@H](C)CC)[C@@H](C)CC)C(=O)N[C@@H](CCC(=O)O)C(=O)N[C@@H](Cc1c[nH]c2ccccc12)C(=O)N[C@@H](CC(C)C)C(=O)N[C@@H](CC(C)C)C(=O)N[C@@H](C)C(=O)N[C@@H](CCC(N)=O)C(=O)N[C@@H](CCC(=O)O)C(=O)N1CCC[C@H]1C(=O)N[C@@H](CO)C(=O)N[C@@H](CO)C(=O)NCC(=O)N[C@@H](C)C(=O)N1CCC[C@H]1C(=O)N1CCC[C@H]1C(=O)N1CCC[C@H]1C(=O)N[C@@H](CO)C(N)=O, Synthetic peptide, 39 residues (Glu at 30)) [SEQ ID NO: 27]	465 nM	0.6 nM	116%	> 10 nM	0.00029 nM	0.032 nM
